Laboratory results published in PMC11544243 (Nature Communications, 2024).

Experiments:
Assay in all cases: SEC-MALS
Trx-EAT-17F (C. elegans) = Trx-EAT-17F (C. elegans) (UniProt S6F527)
[1] = biological target: MBP-BICD-1 CTF (C. elegans)
SEC-MALS = biological target: the molecule itself

Molecule: MBP-BICD-1 CTF (domain or fragment)
- stoichiometry N (BICD-1 CTF per EAT-17F (printed as 2:2)) (Trx-EAT-17F (C. elegans)): 1
- stoichiometry N [1]: 2

B1: Trx-EAT-17F (natural protein, C. elegans, UniProt S6F527-6 1-396, looked up)
chain: MNSDVHRKLEGAYETIRELSSARRDNIMDTGTQVDDTSMIEHIHSLQQELIEAHTRQADSENTLRDAKLRVSELEMANKRLLENEPSEDVAGLQEELISVKMREAESSLALKEMRQRLAELEQHWAKYVHVRAFDPSSASIEKESTSEAHSTQQQPSPPLTSARARLAKITASLIGGSTEETDNCISVRELEDQLMGVRIKEADTLAELKEMRQKVMELETQNHVCTNQLKRQDEEMKRVREDSEVLVKKRKELEDQLKDEKEKLDNKESEFNEGRINDRLKYSEAMQTIQDLQSSISQLELKKAEKWTQNQLRGSSVCDLDEESNSHGSICSNVDHLSLASDEMNALLADMTVRIPTLDDLAEEGSATETDELRPKELNDGNDTTDSGVQLSDSH
- stoichiometry N (SEC-MALS): 2
